Experimental findings from patent US20220332829A1 (NANJING SANHOME PHARMACEUTICAL, published 2022) are described below.

In test [1] the target is T1, human 4Ig-B7-H3-His protein (human, UniProt Q5ZPR3 29-466).
T1 construct: also called human B7-H3 protein
T1 sequence: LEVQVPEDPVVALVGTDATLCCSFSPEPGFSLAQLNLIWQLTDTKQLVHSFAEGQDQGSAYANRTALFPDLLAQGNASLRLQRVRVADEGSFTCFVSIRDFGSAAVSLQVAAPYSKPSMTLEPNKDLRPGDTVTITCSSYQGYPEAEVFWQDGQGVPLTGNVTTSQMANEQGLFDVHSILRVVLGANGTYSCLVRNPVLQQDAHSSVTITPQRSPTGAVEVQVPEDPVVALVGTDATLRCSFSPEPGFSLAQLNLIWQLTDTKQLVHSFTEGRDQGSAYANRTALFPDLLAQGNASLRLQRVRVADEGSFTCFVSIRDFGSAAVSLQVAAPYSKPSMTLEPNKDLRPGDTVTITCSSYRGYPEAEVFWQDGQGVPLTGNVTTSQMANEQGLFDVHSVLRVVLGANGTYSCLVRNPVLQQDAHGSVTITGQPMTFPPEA
The test can be described thus: Biacore X100 SPR, 4Ig-B7-H3-His coupled to CM5 chip, antibody injected. The text has this: The humanized anti-B7-H3 antibodies prepared in Example 4 were subjected to affinity assay by Biacore. The antigen 4Ig-B7-H3-His was first coupled to the surface of a CM5 chip (GE, Cat. No. BR100012), and the active groups of the uncoupled protein were blocked with ethanolamine. After the baseline was stable, the hu39-01, hu65-13, and hBRCA84D antibodies were respectively diluted in equal proportions. The diluted antibodies of each concentration were placed on the sample injection tray of the instrument in sequence, and the program was set to inject samples respectively.

The target in test [2] is T2, Cynomolgus B7-H3-His (Sino Biological, Cat. No. 90806-C08H) (cynomolgus monkey).
T2 construct: Bought reagent; also called cynomolgus monkey B7-H3; monkey B7-H3
The test can be described thus: ELISA, plate coated with cynomolgus B7-H3-His, detection with anti-human IgG HRP, OD450. As for the experimental part: The binding activity of antibodies was analyzed by protein based ELISA. Cynomolgus B7-H3-His (0.5 μg/well, Sino Biological, Cat. No. 90806-C08H) was coated on 96-well ELISA plates. The anti-B7-H3 antibodies of the present disclosure was used as the primary antibody and added to the ELISA plates in 5-fold gradient dilution starting from 2 μg/mL with a total of 8 concentrations: 2,000 ng/mL, 400 ng/mL, 80 ng/mL, 16 ng/mL, 3.2 ng/mL, 0.64 ng/mL, 0.128 ng/mL, and 0.0256 ng/mL respectively. The plates were incubated at 37° C. for 2 h with AB06.12-4P as the positive control antibody. Anti-Human IgG HRP (Jackson, 109-035-003, 1:10,000) was used as the secondary antibody. Color developing solution TMB (3,3′,5,5′-tetramethylbenzidine) was added to the plate, and microplate reader (Thermo, Multiskan FC) was used to read OD450 value after termination of the reaction. EC₅₀ was generated by GraphPad.

Test [3] deals with T3, B7-H3 on surface of tumor cell (786-0, MDA-MB-231, Raji-B7-H3 cells) (human, UniProt Q5ZPR3 29-534).
T3 construct: whole, on cells; The making of Raji-B7-H3 cells is not described; also called B7-H3 on the surface of tumor cells; human B7-H3
T3 sequence (looked up): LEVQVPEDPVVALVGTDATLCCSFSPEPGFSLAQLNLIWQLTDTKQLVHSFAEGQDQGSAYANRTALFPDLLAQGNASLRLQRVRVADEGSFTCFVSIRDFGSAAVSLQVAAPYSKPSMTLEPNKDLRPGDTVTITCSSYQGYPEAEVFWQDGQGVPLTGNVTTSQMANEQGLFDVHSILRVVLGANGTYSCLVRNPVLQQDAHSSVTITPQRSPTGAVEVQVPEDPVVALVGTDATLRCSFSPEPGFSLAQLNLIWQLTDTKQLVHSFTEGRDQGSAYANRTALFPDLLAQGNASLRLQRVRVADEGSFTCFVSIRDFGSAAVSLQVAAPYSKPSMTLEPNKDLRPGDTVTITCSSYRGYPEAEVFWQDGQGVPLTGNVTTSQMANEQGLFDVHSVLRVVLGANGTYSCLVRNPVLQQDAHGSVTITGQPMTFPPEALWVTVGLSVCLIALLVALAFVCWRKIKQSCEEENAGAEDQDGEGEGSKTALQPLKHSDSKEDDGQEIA
The test is described as follows: FACS on MDA-MB-231 cells. How it is done: The binding activity of antibodies to B7-H3 on the surface of tumor cells was analyzed by FACS. Mean fluorescence intensity (MFI) and EC₅₀ detected by FACS indicate the binding activity of the antibody to cells. After 786-0 and MDA-MB-231 cells were digested, they were resuspended in 2% FBS-PBS solution and counted. After raji-B7-H3 cells were collected, they were resuspended in 2% FBS-PBS and counted. The above cells were plated in a cell plate with 1×10⁵ cells per well. The anti-B7-H3 antibody of the present disclosure was used as the primary antibody and added to cell plates in gradient dilution starting from 20 μg/mL with a total of 8 concentrations: 20,000 ng/mL, […], 2,000 ng/mL, 400 ng/mL, 80 ng/mL, 16 ng/mL, 3.2 ng/mL, and 0.64 ng/mL respectively. The plates were incubated at 4° C. for 1 h with hBRCA84D as the positive control antibody. PE-Anti-Human IgG (Biolegend, Cat. No. 409303, 1.25 μl/well) was used as the secondary antibody, washed, and detected for the fluorescence intensity generated by the binding of the antibody to the cell surface by a flow cytometer.

B1: hBRCA84D (antibody, human IgG1, kappa, V domains shown)
VH: EVQLVESGGGLVQPGGSLRLSCAASGFTFSSFGMHWVRQAPGKGLEWVAYISSDSSAIYYADTVKGRFTISRDNAKNSLYLQMNSLRDEDTAVYYCGRGRENIYYGSRLDYWGQGTTVTVSS
VL: DIQLTQSPSFLSASVGDRVTITCKASQNVDTNVAWYQQKPGKAPKALIYSASYRYSGVPSRFSGSGSGTDFTLTISSLQPEDFATYYCQQYNNYPFTFGQGTKLEIKR
notes: Humanized antibody from WO2011/109400; also called positive control antibody hBRCA84D; control antibody hBRCA84D
For B1, in test [1], the Kd amounted to 455 pM, the koff stood at 0.000111 s⁻¹ and the kon was determined as 243000 M⁻¹ s⁻¹. Also, in test [2], the “EC50 (read off the curve)” value is about 0.006 µg/mL. In addition, in test [3], it took 0.384 µg/mL to reach a half-maximal effect (EC50) and the “Mean fluorescence intensity (MFI)” value is 35800.
